Measurements published in paper PMC12990809.

Legend:
Assay in all cases: pulldown
[1] = target: T1, SCHCODRAFT_104251 ins42_DR;V186I (Schizophyllum commune) (UniProt A0ACF2EEN8); conditions: 20 nM protein, 1.5 uM RNA pool; 20 mM HEPES pH 7.8, 70 mM KCl, 10 mM NaCl, 10% glycerol, 2 mM DTT, 0.1 ug/uL BSA; 30 min, 4 C
T1 sequence: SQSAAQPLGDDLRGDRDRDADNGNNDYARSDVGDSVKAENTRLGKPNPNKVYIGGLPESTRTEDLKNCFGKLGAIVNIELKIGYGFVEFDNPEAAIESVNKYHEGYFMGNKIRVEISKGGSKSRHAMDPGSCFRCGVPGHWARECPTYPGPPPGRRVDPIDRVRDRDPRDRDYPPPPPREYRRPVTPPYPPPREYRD

[2] = target: T2, tia1 (Tetraodon nigroviridis) (UniProt H3D7H4); conditions: 20 nM protein, 1.5 uM RNA pool; 20 mM HEPES pH 7.8, 70 mM KCl, 10 mM NaCl, 10% glycerol, 2 mM DTT, 0.1 ug/uL BSA; 30 min, 4 C
T2 sequence: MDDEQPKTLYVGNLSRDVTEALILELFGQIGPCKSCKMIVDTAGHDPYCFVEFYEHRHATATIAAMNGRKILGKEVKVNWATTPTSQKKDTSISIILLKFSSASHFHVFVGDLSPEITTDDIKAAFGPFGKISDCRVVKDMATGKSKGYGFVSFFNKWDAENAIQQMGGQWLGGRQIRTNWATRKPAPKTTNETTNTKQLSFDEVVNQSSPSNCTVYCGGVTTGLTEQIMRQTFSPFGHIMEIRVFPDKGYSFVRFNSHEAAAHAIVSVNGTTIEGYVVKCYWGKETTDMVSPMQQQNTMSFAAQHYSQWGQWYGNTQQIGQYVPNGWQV

[3] = target: T3, CBG00421 (Caenorhabditis briggsae) (UniProt A8WN19); conditions: 20 nM protein, 1.5 uM RNA pool; 20 mM HEPES pH 7.8, 70 mM KCl, 10 mM NaCl, 10% glycerol, 2 mM DTT, 0.1 ug/uL BSA; 30 min, 4 C
T3 sequence: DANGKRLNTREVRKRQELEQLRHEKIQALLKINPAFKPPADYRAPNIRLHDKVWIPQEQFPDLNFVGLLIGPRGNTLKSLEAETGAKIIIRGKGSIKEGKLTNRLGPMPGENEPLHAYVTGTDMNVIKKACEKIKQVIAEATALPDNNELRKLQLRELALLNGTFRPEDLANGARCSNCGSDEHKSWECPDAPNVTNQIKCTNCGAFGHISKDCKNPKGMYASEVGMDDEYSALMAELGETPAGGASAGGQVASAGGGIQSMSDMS

[4] = target: T4, srsf3 (Xenopus tropicalis) (UniProt A0A8J0SH10); conditions: 20 nM protein, 1.5 uM RNA pool; 20 mM HEPES pH 7.8, 70 mM KCl, 10 mM NaCl, 10% glycerol, 2 mM DTT, 0.1 ug/uL BSA; 30 min, 4 C
T4 sequence: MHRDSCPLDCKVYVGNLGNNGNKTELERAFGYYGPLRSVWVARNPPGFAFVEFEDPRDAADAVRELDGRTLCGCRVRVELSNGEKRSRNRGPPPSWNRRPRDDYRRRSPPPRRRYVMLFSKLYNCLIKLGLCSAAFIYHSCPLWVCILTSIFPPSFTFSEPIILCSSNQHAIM

[5] = target: T5, RBM24 (Tetraodon nigroviridis) (UniProt H3DM38); conditions: 20 nM protein, 1.5 uM RNA pool; 20 mM HEPES pH 7.8, 70 mM KCl, 10 mM NaCl, 10% glycerol, 2 mM DTT, 0.1 ug/uL BSA; 30 min, 4 C
T5 sequence: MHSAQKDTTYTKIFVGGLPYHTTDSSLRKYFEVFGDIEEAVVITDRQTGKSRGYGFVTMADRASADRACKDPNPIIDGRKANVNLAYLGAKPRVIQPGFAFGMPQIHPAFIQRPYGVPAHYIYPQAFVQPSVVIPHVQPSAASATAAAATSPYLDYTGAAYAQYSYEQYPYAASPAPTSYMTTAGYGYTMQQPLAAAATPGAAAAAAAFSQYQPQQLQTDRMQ

[6] = target: MSI1 (Homo sapiens) (UniProt O43347); conditions: 20 nM protein, 1.5 uM RNA pool; 20 mM HEPES pH 7.8, 70 mM KCl, 10 mM NaCl, 10% glycerol, 2 mM DTT, 0.1 ug/uL BSA; 30 min, 4 C (protocol of this paper; not …); cited from earlier work
MSI1 (Homo sapiens), sequence (O43347 1-230): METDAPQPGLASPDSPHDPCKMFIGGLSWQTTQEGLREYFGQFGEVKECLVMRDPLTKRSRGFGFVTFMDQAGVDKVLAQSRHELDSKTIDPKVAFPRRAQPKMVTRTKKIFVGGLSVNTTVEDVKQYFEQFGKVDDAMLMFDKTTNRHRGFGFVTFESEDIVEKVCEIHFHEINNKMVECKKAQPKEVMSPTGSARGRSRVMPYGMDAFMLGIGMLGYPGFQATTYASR

[7] = target: T6, mex-5 (Caenorhabditis elegans) (UniProt Q9XUB2); conditions: 20 nM protein, 1.5 uM RNA pool; 20 mM HEPES pH 7.8, 70 mM KCl, 10 mM NaCl, 10% glycerol, 2 mM DTT, 0.1 ug/uL BSA; 30 min, 4 C (protocol of this paper; not …); cited from earlier work
T6 sequence: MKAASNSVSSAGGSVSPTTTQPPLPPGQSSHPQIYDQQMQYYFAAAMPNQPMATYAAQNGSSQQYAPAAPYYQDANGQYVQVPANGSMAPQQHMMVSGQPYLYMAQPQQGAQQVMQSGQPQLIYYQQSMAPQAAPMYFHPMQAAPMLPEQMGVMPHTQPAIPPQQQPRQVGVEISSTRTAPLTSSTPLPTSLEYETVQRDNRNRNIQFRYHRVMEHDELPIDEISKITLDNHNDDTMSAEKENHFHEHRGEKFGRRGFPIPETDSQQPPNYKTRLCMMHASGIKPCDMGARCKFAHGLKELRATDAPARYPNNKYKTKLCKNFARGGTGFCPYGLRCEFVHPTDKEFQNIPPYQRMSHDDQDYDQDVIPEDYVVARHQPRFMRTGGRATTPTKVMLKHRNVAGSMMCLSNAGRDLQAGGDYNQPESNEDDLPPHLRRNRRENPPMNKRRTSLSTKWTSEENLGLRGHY

[8] = target: T7, PK21303.1 (Cannabis sativa) (UniProt A0A803NH45); conditions: 20 nM protein, 1.5 uM RNA pool; 20 mM HEPES pH 7.8, 70 mM KCl, 10 mM NaCl, 10% glycerol, 2 mM DTT, 0.1 ug/uL BSA; 30 min, 4 C
T7 sequence: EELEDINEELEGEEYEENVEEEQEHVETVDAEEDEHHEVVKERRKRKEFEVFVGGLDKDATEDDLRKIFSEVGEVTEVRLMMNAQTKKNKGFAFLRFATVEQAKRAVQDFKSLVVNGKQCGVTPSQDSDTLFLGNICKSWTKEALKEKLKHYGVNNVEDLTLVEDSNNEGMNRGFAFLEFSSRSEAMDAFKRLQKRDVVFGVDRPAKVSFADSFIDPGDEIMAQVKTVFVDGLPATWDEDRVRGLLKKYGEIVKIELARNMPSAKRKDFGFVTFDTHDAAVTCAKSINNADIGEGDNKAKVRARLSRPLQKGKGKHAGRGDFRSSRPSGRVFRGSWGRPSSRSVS

[9] = target: hnrnpa0b (Danio rerio) (UniProt A0A8M1PHH6); conditions: 20 nM protein, 1.5 uM RNA pool; 20 mM HEPES pH 7.8, 70 mM KCl, 10 mM NaCl, 10% glycerol, 2 mM DTT, 0.1 ug/uL BSA; 30 min, 4 C
hnrnpa0b (Danio rerio), sequence (A0A8M1PHH6 entry or part of it): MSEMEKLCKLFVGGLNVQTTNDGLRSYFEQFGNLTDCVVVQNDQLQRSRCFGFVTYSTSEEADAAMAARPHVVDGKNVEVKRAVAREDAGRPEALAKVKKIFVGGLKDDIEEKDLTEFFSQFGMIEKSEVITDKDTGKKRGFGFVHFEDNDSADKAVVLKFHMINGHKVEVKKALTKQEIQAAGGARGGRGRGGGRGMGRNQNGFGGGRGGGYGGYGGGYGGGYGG

[10] = target: T8, NCU04254 (Neurospora crassa) (UniProt Q7S7T0); conditions: 20 nM protein, 1.5 uM RNA pool; 20 mM HEPES pH 7.8, 70 mM KCl, 10 mM NaCl, 10% glycerol, 2 mM DTT, 0.1 ug/uL BSA; 30 min, 4 C
T8 sequence: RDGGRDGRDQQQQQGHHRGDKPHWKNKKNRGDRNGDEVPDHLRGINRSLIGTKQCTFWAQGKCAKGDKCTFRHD

[11] = target: u2af2b (Tetraodon nigroviridis) (UniProt H3CRP7); conditions: 20 nM protein, 1.5 uM RNA pool; 20 mM HEPES pH 7.8, 70 mM KCl, 10 mM NaCl, 10% glycerol, 2 mM DTT, 0.1 ug/uL BSA; 30 min, 4 C
u2af2b (Tetraodon nigroviridis), sequence (H3CRP7 entry or part of it): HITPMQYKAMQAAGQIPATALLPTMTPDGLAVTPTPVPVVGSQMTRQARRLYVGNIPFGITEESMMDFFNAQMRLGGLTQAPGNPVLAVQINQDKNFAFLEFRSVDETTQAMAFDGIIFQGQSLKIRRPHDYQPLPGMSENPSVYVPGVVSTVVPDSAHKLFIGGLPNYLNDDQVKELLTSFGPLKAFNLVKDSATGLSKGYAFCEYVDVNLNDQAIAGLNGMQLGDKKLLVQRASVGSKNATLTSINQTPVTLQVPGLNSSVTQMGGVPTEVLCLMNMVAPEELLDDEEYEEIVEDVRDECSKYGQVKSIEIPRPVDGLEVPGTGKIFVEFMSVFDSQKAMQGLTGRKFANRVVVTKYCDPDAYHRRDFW

[12] = target: T9, TIA1 (Tetraodon nigroviridis) (UniProt H3D1J1); conditions: 20 nM protein, 1.5 uM RNA pool; 20 mM HEPES pH 7.8, 70 mM KCl, 10 mM NaCl, 10% glycerol, 2 mM DTT, 0.1 ug/uL BSA; 30 min, 4 C
T9 sequence: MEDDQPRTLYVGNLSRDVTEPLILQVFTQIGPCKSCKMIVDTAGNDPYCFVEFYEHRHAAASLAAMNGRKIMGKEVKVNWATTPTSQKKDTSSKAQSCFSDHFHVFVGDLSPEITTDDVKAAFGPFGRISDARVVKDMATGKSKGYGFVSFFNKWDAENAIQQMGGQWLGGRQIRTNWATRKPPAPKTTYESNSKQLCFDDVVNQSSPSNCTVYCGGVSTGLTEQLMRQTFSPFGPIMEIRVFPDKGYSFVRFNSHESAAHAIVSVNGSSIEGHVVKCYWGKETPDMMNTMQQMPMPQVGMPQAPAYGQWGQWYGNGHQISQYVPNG

For GACUA [RNAcompete motif RNCMPT00866], the binding signal (z-score (mean of top ten 7-mers)) [1] was 6.58.

UUUUUUG [RNAcompete motif RNCMPT01674] showed a binding signal (z-score (mean of top ten 7-mers)) [2] of 6.08.

For GANUAAU [RNAcompete motif RNCMPT00840], the binding signal (z-score (mean of top ten 7-mers)) [3] was 14.5.

In the case of AACAAC [RNAcompete motif RNCMPT01680], the binding signal (z-score (mean of top ten 7-mers)) [4] was 9.74.

GAGUGUG [RNAcompete motif RNCMPT01677] gave a binding signal (z-score (mean of top ten 7-mers)) [5] of 9.92.

For UAGUUAG [RNAcompete motif RNCMPT00041], the binding signal (z-score (mean of top ten 7-mers)) [6] is listed as 9.05.

For UAAUA [RNAcompete motif RNCMPT00039], the binding signal (z-score (mean of top ten 7-mers)) [7] is listed as 18.

For AGAAGGA [RNAcompete motif RNCMPT00831], the binding signal (z-score (mean of top ten 7-mers)) [8] was 6.57.

With UUAGAUAG [RNAcompete motif RNCMPT01667] the binding signal (z-score (mean of top ten 7-mers)) [9] was 9.2.

GAAUGG [RNAcompete motif RNCMPT00835] gave a binding signal (z-score (mean of top ten 7-mers)) [10] of 8.35.

Substance UUUUUCC [RNAcompete motif RNCMPT01670] has a binding signal (z-score (mean of top ten 7-mers)) [11] of 10.4.

With UUUUUU [RNAcompete motif RNCMPT01672] the binding signal (z-score (mean of top ten 7-mers)) [12] was 8.74.
